The record followed here is US20210238304A1 (EISAI R AND D MANAGEMENT, published 2021).

Assay [1] deals with T1, human mesothelin (recombinant, soluble) (human, UniProt Q13421 296-598). Nature of the assay: SPR BIAcore, parental mAb captured, mesothelin analyte. For orientation: Surface plasmon resonance follows binding to a sensor surface in real time, without labels.
Assay [2] concerns the target T1, human mesothelin (recombinant, soluble). Nature of the assay: SPR BIAcore, captured mAb, mesothelin analyte.
Assay [3] deals with T2, human mesothelin (recombinant, soluble) (human, UniProt Q13421 296-598, limits assumed).
T2 construct: Analyte in BIAcore, coat in ELISA (CHO-MT40 mesothelin), biotinylated on Octet tips; also called MSLN; CHO-MT40 mesothelin
Nature of the assay: SPR BIAcore, run 4. As for the experimental part:
Anti-mesothelin antibody binding affinity to mesothelin was measured by BIAcore (BIAcore T-100, GE healthcare, #1426075), using a series S CMS chip. Antibody concentrations were adjusted to 1 μg/mL and mesothelin (50 μg) to 100 nM in 1×HBS-P+ buffer (GE Healthcare). Anti-human antibody capture chip was prepared according to the manufacturer's protocol using a CMS chip with immobilization wizard. Final capture antibody levels were 8000-9000 RU, in HBS-P+. Chip was prepared for assay with five cycles of 300 sec buffer injection followed by 30 sec regeneration, all at 30 μL/min across all four flow cells. Antibodies were captured on flow cells 2-4 by sequential injections of individual ligand solutions for 90 sec at 10 μL/min. Analyte injection was done in a single-cycle kinetics manner by sequential injections of analyte solutions from low to high concentration for 240 sec each at 30 μL/min. Detection was 2-1, 3-1, 4-1. Double-referencing was performed by a sequence of identical ligand capture injections, followed by 5 buffer-only injections for 240 sec each, dissociation for 1800 sec, and regeneration as above. All ligands were analyzed for binding to mesothelin in duplicate. Kinetic analysis was performed using BIAEvaluations software using a 1:1 Langmuir fitting model. On-rate, off-rate, and affinity constants were averaged from duplicate runs.

Assay [4] deals with T2, human mesothelin (recombinant, soluble). Nature of the assay: SPR BIAcore, affinity against anetumab as reference. As for the experimental part:
(§1) Binding affinity: Binding measurements were performed in HBS-P+ buffer on a BIAcore T-100 instrument. Antibodies were diluted to 1 μg/mL in HBS-P+. Samples were centrifuged at 14,000×g for 5 min at room temperature and then supernatants were transferred to a new 1.5 mL BIAcore tube and capped. […] Anti-human antibody capture chip was prepared according to the manufacturer's protocol using a CMS chip with immobilization wizard. Final capture antibody levels were 8000-9000RU, in HBS-P+.
(§2) Antibodies were captured on flow cells 2-4 by sequential injections of individual ligand solutions for 90 sec at 10 μL/min. Analyte injection was done in a single-cycle kinetics manner by sequential injections of analyte solutions from low to high concentration for 240 sec each at 30 μL/min. Detection was 2-1, 3-1, 4-1. Double-referencing was performed by a sequence of identical ligand capture injections, followed by 5 buffer-only injections for 240 sec each, dissociation for 1800 sec, and regeneration as above. All ligands were analyzed for binding to mesothelin in duplicate. Kinetic analysis was performed using BIAEvaluations software using a 1:1 Langmuir fitting model. On-rate, off-rate, and affinity constants were averaged from duplicate runs.

Assay [5] has the same target. Nature of the assay: SPR BIAcore T-100, captured mAb, mesothelin 0.16-100 nM, single-cycle kinetics. As for the experimental part:
as §1, §2

Another assay concerns the target T3, rat mesothelin (rat, UniProt Q9ERA7 298-600, limits assumed).
T3 sequence (looked up): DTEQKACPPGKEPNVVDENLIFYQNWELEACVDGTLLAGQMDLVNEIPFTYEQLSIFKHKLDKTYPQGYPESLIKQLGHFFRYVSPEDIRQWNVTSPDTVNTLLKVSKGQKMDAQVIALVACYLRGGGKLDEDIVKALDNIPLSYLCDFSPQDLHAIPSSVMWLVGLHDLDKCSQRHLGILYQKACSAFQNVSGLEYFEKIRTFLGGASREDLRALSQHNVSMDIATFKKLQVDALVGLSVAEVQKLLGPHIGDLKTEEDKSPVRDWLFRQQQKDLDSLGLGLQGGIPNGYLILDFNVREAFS
Nature of the assay: SPR BIAcore, captured mAb, mesothelin analyte. As for the experimental part:
as §1, §2

Assay [6] concerns the target cynomolgus monkey mesothelin (cynomolgus monkey). Nature of the assay: SPR BIAcore T-100, captured mAb, mesothelin analyte, single-cycle kinetics. As for the experimental part: as §1, §2
The target of assay [7] is human mesothelin expressed on cells (human, UniProt Q13421 37-598). Nature of the assay: cell-based or functional assay.
Sequence of human mesothelin expressed on cells (Q13421 other isoform, or with tags, fused parts or gaps): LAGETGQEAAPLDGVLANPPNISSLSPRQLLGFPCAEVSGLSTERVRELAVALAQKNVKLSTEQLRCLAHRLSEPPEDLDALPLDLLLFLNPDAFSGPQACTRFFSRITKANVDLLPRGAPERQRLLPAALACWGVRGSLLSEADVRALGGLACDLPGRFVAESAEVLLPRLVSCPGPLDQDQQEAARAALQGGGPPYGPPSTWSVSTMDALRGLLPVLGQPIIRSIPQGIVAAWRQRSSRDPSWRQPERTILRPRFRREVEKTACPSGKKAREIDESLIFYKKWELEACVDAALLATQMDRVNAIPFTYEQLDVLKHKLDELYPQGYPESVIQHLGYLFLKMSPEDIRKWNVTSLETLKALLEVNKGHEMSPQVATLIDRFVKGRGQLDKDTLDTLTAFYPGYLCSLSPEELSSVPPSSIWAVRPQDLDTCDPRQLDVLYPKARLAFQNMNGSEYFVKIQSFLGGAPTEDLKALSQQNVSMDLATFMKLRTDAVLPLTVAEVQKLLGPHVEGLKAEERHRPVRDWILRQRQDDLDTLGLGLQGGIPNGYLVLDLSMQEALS

T1 sequence (Q13421 other isoform, or with tags, fused parts or gaps): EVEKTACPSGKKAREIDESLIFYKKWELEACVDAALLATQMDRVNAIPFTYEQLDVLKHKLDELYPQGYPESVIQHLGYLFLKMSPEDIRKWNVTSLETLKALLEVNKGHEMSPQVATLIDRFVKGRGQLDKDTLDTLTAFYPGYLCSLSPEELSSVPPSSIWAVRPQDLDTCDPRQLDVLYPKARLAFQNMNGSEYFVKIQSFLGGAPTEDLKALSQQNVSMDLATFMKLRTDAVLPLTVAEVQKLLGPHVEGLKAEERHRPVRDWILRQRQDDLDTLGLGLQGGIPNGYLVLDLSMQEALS

B1: 346C6 zu (humanized, CDR-grafted HC1-LC1) (antibody, V domains shown)
VH: EVQLVESGGGLVQPGGSLRLSCAASGFSLSSYAMIWVRQAPGKGLEWIGTISTGGITYYASWAKGRFTISRDNSKNTLYLQMNSLRAEDTAVYYCARGGYAASSAYYLPYYFDLWGQGTLVTVSS
VL: DIQMTQSPSSLSASVGDRVTITCQSSQSVYNNNNLAWYQQKPGKVPKLLIYLASTLASGVPSRFSGSGSGTDFTLTISSLQCEDAATYYCLGGCDDDADTFAFGGGTKVEIKR
On to B1, for which, in assay [1], the Kd stood at 8.9 nM, the koff came to 0.093 s⁻¹ and the kon was found to be 1.33e+07 M⁻¹ s⁻¹.

B2: 33O11 (rabbit-human chimeric anti-human mesothelin antibody) (antibody, V domains shown)
VH: QSVEESGGRLVTPGTPLTLTCTVSGISLSSDAISWVRQAPGKGLEYIGIINGGGNTYYASWAKGRFTISKTSTTVDLKITSPTTEDTATYFCARGIQHGGGNSDYYYYGMDLWGPGTLVTVSS
VL: EVLMTQTPSSVSAAVGDTVTIKCQASQSISSVLSWYQQKPGQPPKLLIYLASTLASGVPSRFSGSRSGTEFTLTISDLECDDAATYYCQTNYGTSSSNYGFAFGGGTEVVVK
Take B2: in assay [2], the dissociation constant (Kd) stood at 0.335 nM, the koff came out at 0.000668 s⁻¹ and the kon was 1.99e+06 M⁻¹ s⁻¹.

B3: 345A12-HC15-LC4 (antibody, human IgG1, kappa, V domains shown)
VH: QVQLVESGGGVVQPGRSLRLSCAASGIDLSSYAMSWVRQAPGKGLEWIGVIDISGNRFYADWVKGRFTISRDNSKNTLYLQMSSLRAEDTAVYYCARVDSRAWGPFNLWGQGTLVTVSS
VL: DYQMTQSPSSLSASVGDRVTITCQASQSIFSYLAWYQQKPGKAPKLLIYDASDLASGVPSRFSGSGSGTDFTLTISSLQCEDAATYYCQQGYTRSDVDNAFGGGTKVEIKR
notes: Humanized rabbit antibody, human IgG1/kappa, unpaired Cys80 in the light chain; also called zu345A12-HC15-LC4
For B3, in assay [3], the Kd is 0.0779 nM, the koff is 0.000112 s⁻¹ and the kon is 1.44e+06 M⁻¹ s⁻¹. Besides, the “fold higher affinity than anetumab” value in assay [4] was 40 fold. In addition, in assay [5], the Kd turned out to be 0.195 nM, the koff came to 0.000285 s⁻¹ and the kon was determined as 1.46e+06 M⁻¹ s⁻¹. For the same molecule, the binding result in the assay with rat mesothelin is listed as “no binding (tested: 100 nM highest analyte concentration)”. Besides, in assay [6], the affinity, expressed as Kd, was 88.6 nM; the koff turned out to be 0.000751 s⁻¹; the kon came to 10500 M⁻¹ s⁻¹.

B4: 237N18 (rabbit-human chimeric anti-human mesothelin antibody) (antibody, V domains shown)
VH: QSLEESGGRLVAPGTPLTLTCTVSGFSLSSYHMSWVRQAPGEGLEWIGGITAMSRTYYASWAKGRFTISKTSTTVHLKITSPTTEDTATYFCAREPGFVSNIWGPGTLVTVSL
VL: AVVLTQTASPVSGVVGGTVTIKCQASQNIYSNLAWYQQKPGQRPKLLMYDASTLASGVPSRFKGSGSGTQFTLTISDLECADAATYYCQSISSVDNNVFGGGTEVVVK
For the molecule B4, in assay [2], the Kd was determined as 3.38 nM, the koff was determined as 0.00428 s⁻¹ and the kon was determined as 1.27e+06 M⁻¹ s⁻¹.

B5: 201C15 zu (humanized, CDR-grafted HC1-LC1) (antibody, V domains shown)
VH: QVQLVESGGGLVQPGGSLRLSCSASGIDLSSYAMGWVRQAPGKGLEYIGTINIGGRVYYASWAKGRFTISRDNSKNTLYLQMNSLRAEDTAVYYCARYYNGGSYDIWGQGTLVTVSS
VL: DIQMTQSPSTLSASVGDRVTITCQASESIYRVLAWYQQKPGKAPKLLIYDTSTLASGVPSRFSGSGSGTEFTLTISSLQCDDAATYYCQGGYYADSYGIAFGGGTKVEIKR
Regarding B5, in assay [1], the Kd stood at 4.2 nM, the koff turned out to be 0.0011 s⁻¹ and the kon turned out to be 310000 M⁻¹ s⁻¹.

B6: 111B10 zu (humanized, CDR-grafted HC1-LC1) (antibody, V domains shown)
VH: EVQLVESGGGLVQPGGSLRLSCAASGFSLNNYAMSWVRQAPGKGLEWIGSISTGGLAFYANWAKGRFTISRDNSKNTLYLQMNSLRAEDTAVYYCARNGGGSYIFYYFDLWGQGTLVTVSS
VL: DIQMTQSPSSLSASVGDRVTITCQASQSISSYLSWYQQKPGKAPKLLIYSASTLASGVPSRFSGSGSGTDFTLTISSLQCEDAATYYCQSYYDIGTSTFGGGTKVEIKR
Consider B6, for which, in assay [1], the Kd turned out to be 6.5 nM, the koff was determined as 0.003 s⁻¹ and the kon amounted to 510000 M⁻¹ s⁻¹.

B7: Xi-383I18(AuF) (antibody, V domains shown)
VH: SQSVEESGGRLVTPGTPLTLTCTVSGFSLSSYAMGWVRQAPGEGLEWIGTISTGGITYYASWAKGRFTISKTSTTVDLKITSPTTEDTATYFCARVGSSGYLFYFFNLWGQGTLVTVSS
VL: VFELTQTPSPVSAAVGGTVTIRCQASQNIKSYLAWYQQKPGQPPKLLIYEASILASGVSSRFKGSGSGTEFTLTISDLECADAATYYCQSYYAASSNAFGGGTEVVVK
In the case of B7, in assay [2], the Kd worked out at 0.28 nM, the koff is 0.000281 s⁻¹ and the kon amounted to 1.01e+06 M⁻¹ s⁻¹.

B8: BAY 94-9343 (anetumab ravtansine) (antibody, human IgG1, lambda, V domains shown)
VH: QVELVQSGAEVKKPGESLKISCKGSGYSFTSYWIGWVRQAPGKGLEWMGIIDPGDSRTRYSPSFQGQVTISADKSISTAYLQWSSLKASDTAMYYCARGQLYGGTYMDGWGQGTLVTVSS
VL: DIALTQPASVSGSPGQSITISCTGTSSDIGGYNSVSWYQQHPGKAPKLMIYGVNNRPSGVSNRFSGSKSGNTASLTISGLQAEDEADYYCSSYDIESATPVFGGGTKLTVLG
modifications: SPDB-DM4 on lysines, DAR 3.7 for the whole antibody, positions not given
Take B8: in assay [7], the “EC50 (read off the curve): % killing of NCI-N87 cells, BAY 94-9343 alone” value is approximately 0.8 nM and the “EC50 (read off the curve): % killing of NCI-N87 cells, BAY 94-9343 with 3 uM unconjugated anetumab” value was approximately 0.8 nM.

B9: anetumab (antibody, human IgG1, lambda, V domains shown)
VH: QVELVQSGAEVKKPGESLKISCKGSGYSFTSYWIGWVRQAPGKGLEWMGIIDPGDSRTRYSPSFQGQVTISADKSISTAYLQWSSLKASDTAMYYCARGQLYGGTYMDGWGQGTLVTVSS
VL: DIALTQPASVSGSPGQSITISCTGTSSDIGGYNSVSWYQQHPGKAPKLMIYGVNNRPSGVSNRFSGSKSGNTASLTISGLQAEDEADYYCSSYDIESATPVFGGGTKLTVLG
Take B9: in assay [5], the Kd is 7.26 nM, the koff was 0.00112 s⁻¹ and the kon was 168000 M⁻¹ s⁻¹. Also, the binding result in the assay with rat mesothelin is listed as “no binding (tested: 100 nM highest analyte concentration)”.

As usually defined, the Kd is the free concentration of one partner at which half of the binding sites on the other are occupied at equilibrium, for simple one-to-one binding. Usually koff stands for the first-order rate constant of dissociation. As usually defined, the kon is the rate constant with which the complex forms.
